From publication PMC5014651

T1: NS1B CTD wt (Influenza B virus (B/Lee/1940), UniProt P03502 141-281)
T1 sequence: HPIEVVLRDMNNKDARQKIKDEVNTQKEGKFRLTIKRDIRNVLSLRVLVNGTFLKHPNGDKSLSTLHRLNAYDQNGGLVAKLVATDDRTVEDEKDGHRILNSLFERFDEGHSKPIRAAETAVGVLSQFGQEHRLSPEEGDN

B1: 16-bp dsRNA (dsRNA)
RNA 1: CGCCUGUAGAGGAUGG
RNA 2: CCAUCCUCUACAGGCG
B2: 16 minus ssRNA (antisense) (ssRNA)
RNA: CGCCUGUAGAGGAUGG

Legend:
[1] = target: NS1B C-terminal domain (residues 141-281 of NS1B, influenza B/Lee/1940) (influenza B virus (B/lee/1940)) (UniProt P03502); experiment: NMR titration
[2] = target: NS1B C-terminal domain (residues 141-281 of NS1B, influenza B/Lee/1940) (influenza B virus (B/lee/1940)) (UniProt P03502); experiment: NMR rotational correlation time
NS1B CTD wt = target: T1, NS1B CTD wt; experiment: fluorescence polarization
NS1A CTD = NS1A CTD (Influenza A virus (Udorn), UniProt P03495 85-215); experiment: fluorescence polarization
Sequence of NS1A CTD (P03495 85-215): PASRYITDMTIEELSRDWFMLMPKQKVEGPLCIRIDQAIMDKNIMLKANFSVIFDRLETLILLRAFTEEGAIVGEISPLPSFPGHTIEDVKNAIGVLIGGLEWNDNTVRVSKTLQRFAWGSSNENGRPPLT

Row | Molecule | Kd [1] [µM] | Kd [2] [µM] | stoichiometry N [2] | Kd (NS1B CTD wt) [µM] | binding result (NS1A CTD)
1 | NS1B C-terminal domain (residues 141-281 of NS1B, influenza B/Lee/1940) (from UniProt P03502 141-281) (domain or fragment) | 600 | 700 | 2 |  | 
2 | B1 |  |  |  | 0.13 ± 0.03 | no binding
3 | B2 |  |  |  | 0.58 ± 0.05 | 
